Test results taken from paper PMC2613223 (International journal of cancer. Journal international du …, 2008).

Molecular target: DNA-dependent protein kinase catalytic subunit (human (endogenous in HCT-116), UniProt P78527 1-4128)
Experiment: cell-based or functional assay

Sequence of DNA-dependent protein kinase catalytic subunit (P78527 whole entry): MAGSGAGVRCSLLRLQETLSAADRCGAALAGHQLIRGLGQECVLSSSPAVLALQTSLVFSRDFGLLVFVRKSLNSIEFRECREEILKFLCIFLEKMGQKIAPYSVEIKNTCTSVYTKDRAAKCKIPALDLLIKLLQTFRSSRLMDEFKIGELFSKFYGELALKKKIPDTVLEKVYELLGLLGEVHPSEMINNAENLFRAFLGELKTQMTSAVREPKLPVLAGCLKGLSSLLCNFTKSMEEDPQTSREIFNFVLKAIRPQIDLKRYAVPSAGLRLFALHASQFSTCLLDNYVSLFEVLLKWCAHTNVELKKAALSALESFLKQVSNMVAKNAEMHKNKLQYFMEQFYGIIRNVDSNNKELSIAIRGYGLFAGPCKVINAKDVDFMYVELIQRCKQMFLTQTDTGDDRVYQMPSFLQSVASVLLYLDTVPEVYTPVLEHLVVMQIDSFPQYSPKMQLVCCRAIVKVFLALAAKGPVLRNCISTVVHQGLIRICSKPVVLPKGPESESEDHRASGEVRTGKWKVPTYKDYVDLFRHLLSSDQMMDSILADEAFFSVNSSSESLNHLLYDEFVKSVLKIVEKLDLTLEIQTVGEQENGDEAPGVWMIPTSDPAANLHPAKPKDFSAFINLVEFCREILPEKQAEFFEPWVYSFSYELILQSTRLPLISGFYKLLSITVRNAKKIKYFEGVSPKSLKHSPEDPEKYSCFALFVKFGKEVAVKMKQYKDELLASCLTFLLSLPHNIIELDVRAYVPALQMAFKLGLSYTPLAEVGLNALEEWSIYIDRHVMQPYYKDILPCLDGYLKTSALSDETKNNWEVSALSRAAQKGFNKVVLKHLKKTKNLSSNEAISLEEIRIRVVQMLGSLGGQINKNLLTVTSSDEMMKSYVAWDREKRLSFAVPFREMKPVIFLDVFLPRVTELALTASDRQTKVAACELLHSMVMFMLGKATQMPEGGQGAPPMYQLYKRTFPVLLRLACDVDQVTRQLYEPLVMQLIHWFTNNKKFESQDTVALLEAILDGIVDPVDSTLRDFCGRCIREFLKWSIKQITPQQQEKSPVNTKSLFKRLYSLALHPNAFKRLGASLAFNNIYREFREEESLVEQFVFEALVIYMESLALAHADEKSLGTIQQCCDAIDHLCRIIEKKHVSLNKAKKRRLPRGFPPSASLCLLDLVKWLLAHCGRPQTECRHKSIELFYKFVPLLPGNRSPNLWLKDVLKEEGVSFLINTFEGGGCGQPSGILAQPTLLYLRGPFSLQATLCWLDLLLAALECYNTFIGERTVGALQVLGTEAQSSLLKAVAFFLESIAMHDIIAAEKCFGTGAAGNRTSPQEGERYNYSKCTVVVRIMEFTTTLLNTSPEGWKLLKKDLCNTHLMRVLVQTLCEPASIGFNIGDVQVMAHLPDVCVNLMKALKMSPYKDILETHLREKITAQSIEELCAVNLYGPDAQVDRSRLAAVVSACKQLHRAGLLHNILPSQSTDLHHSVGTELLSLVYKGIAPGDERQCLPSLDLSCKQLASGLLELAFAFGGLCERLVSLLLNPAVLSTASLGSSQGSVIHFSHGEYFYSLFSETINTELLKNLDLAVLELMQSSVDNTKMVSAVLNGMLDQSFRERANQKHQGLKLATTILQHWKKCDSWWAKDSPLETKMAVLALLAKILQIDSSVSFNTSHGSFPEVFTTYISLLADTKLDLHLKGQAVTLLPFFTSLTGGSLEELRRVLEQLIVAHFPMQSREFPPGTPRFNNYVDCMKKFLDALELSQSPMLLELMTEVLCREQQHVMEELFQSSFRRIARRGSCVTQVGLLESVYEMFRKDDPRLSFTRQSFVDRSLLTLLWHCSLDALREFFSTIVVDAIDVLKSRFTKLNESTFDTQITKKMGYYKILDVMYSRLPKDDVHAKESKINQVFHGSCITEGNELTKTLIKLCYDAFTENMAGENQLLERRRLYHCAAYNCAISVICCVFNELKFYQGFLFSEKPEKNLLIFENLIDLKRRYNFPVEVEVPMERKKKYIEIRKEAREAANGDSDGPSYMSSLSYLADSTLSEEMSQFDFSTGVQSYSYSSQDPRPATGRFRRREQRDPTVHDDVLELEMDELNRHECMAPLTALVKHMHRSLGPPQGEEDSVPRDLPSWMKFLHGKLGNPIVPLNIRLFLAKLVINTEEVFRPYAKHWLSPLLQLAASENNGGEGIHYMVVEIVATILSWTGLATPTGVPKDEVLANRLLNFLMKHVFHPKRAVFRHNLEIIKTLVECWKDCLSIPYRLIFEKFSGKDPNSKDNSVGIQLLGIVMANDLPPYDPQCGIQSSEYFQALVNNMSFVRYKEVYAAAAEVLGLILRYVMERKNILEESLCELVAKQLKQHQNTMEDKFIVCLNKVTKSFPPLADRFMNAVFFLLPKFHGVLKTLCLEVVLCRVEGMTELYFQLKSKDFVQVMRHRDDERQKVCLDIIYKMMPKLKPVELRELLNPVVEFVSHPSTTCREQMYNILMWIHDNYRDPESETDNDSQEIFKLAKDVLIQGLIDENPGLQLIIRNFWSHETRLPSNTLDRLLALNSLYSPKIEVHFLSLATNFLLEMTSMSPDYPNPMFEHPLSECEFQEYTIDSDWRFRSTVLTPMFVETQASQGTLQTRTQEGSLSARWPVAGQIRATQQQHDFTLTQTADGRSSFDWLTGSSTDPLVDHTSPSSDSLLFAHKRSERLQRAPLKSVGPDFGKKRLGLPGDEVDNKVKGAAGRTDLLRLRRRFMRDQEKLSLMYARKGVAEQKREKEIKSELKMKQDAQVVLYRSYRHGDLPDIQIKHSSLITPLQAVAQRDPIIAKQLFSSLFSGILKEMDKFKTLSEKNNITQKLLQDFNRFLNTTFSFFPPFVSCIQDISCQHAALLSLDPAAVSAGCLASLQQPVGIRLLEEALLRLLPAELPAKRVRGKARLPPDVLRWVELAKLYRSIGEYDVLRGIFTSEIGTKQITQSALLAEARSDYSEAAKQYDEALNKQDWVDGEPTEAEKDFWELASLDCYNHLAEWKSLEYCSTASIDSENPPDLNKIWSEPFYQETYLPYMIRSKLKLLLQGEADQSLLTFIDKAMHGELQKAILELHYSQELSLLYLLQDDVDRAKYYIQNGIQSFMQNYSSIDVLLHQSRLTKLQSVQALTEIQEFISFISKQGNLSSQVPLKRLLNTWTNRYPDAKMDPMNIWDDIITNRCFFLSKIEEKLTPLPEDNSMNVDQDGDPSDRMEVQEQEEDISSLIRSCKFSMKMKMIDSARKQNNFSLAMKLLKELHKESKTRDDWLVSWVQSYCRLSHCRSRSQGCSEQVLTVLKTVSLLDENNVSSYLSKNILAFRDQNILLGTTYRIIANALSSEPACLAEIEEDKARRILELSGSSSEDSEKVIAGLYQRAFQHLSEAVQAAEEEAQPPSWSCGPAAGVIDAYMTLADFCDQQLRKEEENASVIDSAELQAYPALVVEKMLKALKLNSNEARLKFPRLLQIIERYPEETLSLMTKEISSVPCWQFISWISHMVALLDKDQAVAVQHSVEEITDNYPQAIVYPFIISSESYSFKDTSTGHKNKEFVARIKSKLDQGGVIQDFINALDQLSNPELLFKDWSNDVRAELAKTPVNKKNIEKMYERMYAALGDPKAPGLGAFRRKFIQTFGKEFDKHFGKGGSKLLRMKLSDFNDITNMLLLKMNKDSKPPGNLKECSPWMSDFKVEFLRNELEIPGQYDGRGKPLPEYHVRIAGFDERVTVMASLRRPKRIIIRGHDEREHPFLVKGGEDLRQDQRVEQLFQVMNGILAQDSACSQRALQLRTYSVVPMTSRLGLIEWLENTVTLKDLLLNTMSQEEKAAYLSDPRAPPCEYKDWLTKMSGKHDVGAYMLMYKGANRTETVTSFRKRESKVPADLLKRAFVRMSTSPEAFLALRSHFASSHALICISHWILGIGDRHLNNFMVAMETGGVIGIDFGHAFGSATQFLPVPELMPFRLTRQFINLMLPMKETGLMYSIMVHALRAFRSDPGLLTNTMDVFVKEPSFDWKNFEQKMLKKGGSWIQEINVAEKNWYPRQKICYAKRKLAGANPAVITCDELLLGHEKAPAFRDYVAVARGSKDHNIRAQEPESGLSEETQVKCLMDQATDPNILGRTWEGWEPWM

B1: 15-lipoxygenase-1 (enzyme, human, UniProt P16050 1-662, looked up)
chain: MGLYRIRVSTGASLYAGSNNQVQLWLVGQHGEAALGKRLWPARGKETELKVEVPEYLGPLLFVKLRKRHLLKDDAWFCNWISVQGPGAGDEVRFPCYRWVEGNGVLSLPEGTGRTVGEDPQGLFQKHREEELEERRKLYRWGNWKDGLILNMAGAKLYDLPVDERFLEDKRVDFEVSLAKGLADLAIKDSLNVLTCWKDLDDFNRIFWCGQSKLAERVRDSWKEDALFGYQFLNGANPVVLRRSAHLPARLVFPPGMEELQAQLEKELEGGTLFEADFSLLDGIKANVILCSQQHLAAPLVMLKLQPDGKLLPMVIQLQLPRTGSPPPPLFLPTDPPMAWLLAKCWVRSSDFQLHELQSHLLRGHLMAEVIVVATMRCLPSIHPIFKLIIPHLRYTLEINVRARTGLVSDMGIFDQIMSTGGGGHVQLLKQAGAFLTYSSFCPPDDLADRGLLGVKSSFYAQDALRLWEIIYRYVEGIVSLHYKTDVAVKDDPELQTWCREITEIGLQGAQDRGFPVSLQARDQVCHFVTMCIFTCTGQHASVHLGQLDWYSWVPNAPCTMRLPPPTTKDATLETVMATLPNFHQASLQMSITWQLGRRQPVMVAVGQHEEEYFSGPEPKAVLKKFREELAALDKEIEIRNAKLDMPYEYLRPSVVENSVAI
Question: How did the “DNA-PK kinase activity in 15-LOX-1 expressing whole cell extract lysates” value turn out when B1 was run?
Answer: 1.6 fold
